According to US20060183886A1:

Target: asialoglycoprotein receptor on Hep G2 cells (human (Hep G2 cells)) (UniProt P07306)
Experiment: cell-based or functional assay

Chain of UniProt P07306 (P07306 whole entry): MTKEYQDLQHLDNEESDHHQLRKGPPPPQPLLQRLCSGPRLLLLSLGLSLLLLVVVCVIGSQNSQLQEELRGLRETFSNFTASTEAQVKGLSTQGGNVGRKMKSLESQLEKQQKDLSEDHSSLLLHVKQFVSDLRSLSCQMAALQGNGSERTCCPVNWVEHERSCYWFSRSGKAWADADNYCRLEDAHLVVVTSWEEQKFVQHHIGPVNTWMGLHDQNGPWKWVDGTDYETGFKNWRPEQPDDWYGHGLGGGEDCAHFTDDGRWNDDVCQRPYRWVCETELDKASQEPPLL

- cell association (uptake) by Hep G2 cells, 1 uM conjugate alone, 37 C, two hours (pmol per 10^6 cells): 7.8
- cell association (uptake) by Hep G2 cells, 1 uM conjugate with a 100-fold excess of free 5, 37 C, two hours (pmol per 10^6 cells): 0.42
- uptake by Hep G2 cells, 1 uM conjugate, 37 C, about 24 hours (pmol per 10^6 cells): 26.6
Substance: [YEE(ah-GalNAc)3]-SMCC-AET-pU^mpT7
